Test results taken from publication PMC8513623.

Experiments:
[1] = molecular target: Bin1b SH3 domain (zebrafish), N-terminally His-tagged (zebrafish); test: ITC
[2] = molecular target: Full-length zebrafish Cavin4b (Cavin4b-FL), His-ubiquitin tagged (zebrafish) (UniProt Q5PQY9); test: ITC

Substance | Kd [1] | Kd [2]
Chikungunya virus (CHIKV) proline-rich peptide | 0.0889 µM | –
Bin1b SH3 domain (zebrafish), N-terminally His-tagged (domain or fragment) | – | 55.9 µM
Cavin4b PRD peptide (zebrafish Cavin4b proline-rich peptide) (from UniProt Q5PQY9 271-286) | 61.7 µM | –
